B1: Twister Ribozyme (parent)
chain: AACACUGCCAAUGCCGGUCCCAAGCCCGGAUAAAAGUGGAGGGGGCGG

Variants of: B1
Experiment: self-cleavage, relative activity (ratio to wild type); higher = more cleavage; co-transcriptional

Point of comparison: AACACUGCCAAUGCCGGUCCCAAGCCCGGAAAAAAGUGGACGGGGCGG, self-cleavage 0.266. Against it:
- AACACUGCCAAUGCCGGUCCCAAGCCCGGGUAAAAGUGGAUGGGGCGG — higher, 0.772
- AACACUGCCAAUGCCGGUCCCAAGCCCGGGUAAAAGUGGAAGGGGCGG — higher, 0.666
- AACACUGCCAAUGCCGGUCCCAAGCCCGGAAAAAAGUGGAGGGGCCGG — higher, 0.347
- AACACUGCCAAUGCCGGUCCCAAGCCCGGUUAAAAGUGGAGGGGGCGG — higher, 0.984
- AACACUGCCAAUGCCGGUCCCAAGCCCGGAAAAAAGUGGAGGGGGCAG — higher, 0.628
- AACACUGCCAAUGCCGGUCCCAAGCCCGGAAAAAAGUGGAGGGGGCUG — higher, 0.621
- AACACUGCCAAUGCCGGUCCCAAGCCCGGAAAAAAGUGGAGGGGGCCG — higher, 0.391
- AACACUGCCAAUGCCGGUCCCAAGCCCGGUUAAAAGUGGAGGGGGCCG — higher, 0.669
- AACACUGCCAAUGCCGGUCCCAAGCCCGGAGAAAGGUGGAGGGGGCGG — higher, 0.682
- AACACUGCCAAUGCCGGUCCCAAGCCCGGAGAAACGUGGAGGGGGCGG — higher, 1.06
- AACACUGCCAAUGCCGGUCCCAAGCCCGGACAGAAGUGGAGGGGGCGG — higher, 0.891
- AACACUGCCAAUGCCGGUCCCAAGCCCGGACAUAAGUGGAGGGGGCGG — higher, 1.08
- AACACUGCCAAUGCCGGUCCCAAGCCCGGAAAACAGUGGAGGGGGCGG — higher, 0.536
- AACACUGCCAAUGCCGGUCCCAAGCCCGGAGAAAAGUGGAGGGGGAGG — higher, 1.1
- AACACUGCCAAUGCCGGUCCCAAGCCCGGAAGAAAGUGGAGGGGGCGG — higher, 0.985
- AACACUGCCAAUGCCGGUCCCAAGCCCGGAGAGAAGUGGAGGGGGCGG — higher, 1.02
- AACACUGCCAAUGCCGGUCCCAAGCCCGGGUAAAAGUGGAGCGGGCGG — higher, 0.571
- AACACUGCCAAUGCCGGUCCCAAGCCCGGGUAAAAGUGGAGAGGGCGG — higher, 0.413
- AACACUGCCAAUGCCGGUCCCAAGCCCGGUUAACAGUGGAGGGGGCGG — lower, 0.17
- AACACUGCCAAUGCCGGUCCCAAGCCCGGACAAAAGUGGAUGGGGCGG — higher, 0.764
- AACACUGCCAAUGCCGGUCCCAAGCCCGGAAAAAAGUGGAGGGAGCGG — higher, 0.689
- AACACUGCCAAUGCCGGUCCCAAGCCCGGAAAAAAGUGGAGGGUGCGG — higher, 0.83
- AACACUGCCAAUGCCGGUCCCAAGCCCGGAGAAAAGUGGCGGGGGCGG — lower, 0.224
- AACACUGCCAAUGCCGGUCCCAAGCCCGGAGAAAAGUGGGGGGGGCGG — lower, 0.0918
- AACACUGCCAAUGCCGGUCCCAAGCCCGGACAAAAGUGGAGGGGGCGA — higher, 0.901
- AACACUGCCAAUGCCGGUCCCAAGCCCGGACAAAAGUGGAGGGGGCGC — higher, 1.2
- AACACUGCCAAUGCCGGUCCCAAGCCCGGAAAAAAGUGGAAGGGGCGG — higher, 0.452
- AACACUGCCAAUGCCGGUCCCAAGCCCGGACAAAAGUGGAGGUGGCGG — higher, 0.537
- AACACUGCCAAUGCCGGUCCCAAGCCCGGACAAAAGUGGAGGGGGCCG — higher, 0.745
- AACACUGCCAAUGCCGGUCCCAAGCCCGGACAAAAGUGGAGGGGGCUG — higher, 1.02
- AACACUGCCAAUGCCGGUCCCAAGCCCGGACGAAAGUGGAGGGGGCGG — higher, 0.997
- AACACUGCCAAUGCCGGUCCCAAGCCCGGACCAAAGUGGAGGGGGCGG — higher, 0.965
- AACACUGCCAAUGCCGGUCCCAAGCCCGGAAACAAGUGGAGGGGGCGG — higher, 0.833
- AACACUGCCAAUGCCGGUCCCAAGCCCGGAAAAAAUUGGAGGGGGCGG — higher, 0.292
- AACACUGCCAAUGCCGGUCCCAAGCCCGGAAAAAACUGGAGGGGGCGG — higher, 0.388
- AACACUGCCAAUGCCGGUCCCAAGCCCGGAAAAAAAUGGAGGGGGCGG — higher, 0.614
- AACACUGCCAAUGCCGGUCCCAAGCCCGGUAAAAAGUGGAGGGGGCGG — higher, 0.931
- AACACUGCCAAUGCCGGUCCCAAGCCCGGUUAAAAGUCGAGGGGGCGG — higher, 0.88
- AACACUGCCAAUGCCGGUCCCAAGCCCGGUUAAAAGUUGAGGGGGCGG — higher, 0.957
- AACACUGCCAAUGCCGGUCCCAAGCCCGGACAAAAGCGGAGGGGGCGG — higher, 0.587
- AACACUGCCAAUGCCGGUCCCAAGCCCGGACAAAAGGGGAGGGGGCGG — higher, 1
- AACACUGCCAAUGCCGGUCCCAAGCCCGGACAAAAGAGGAGGGGGCGG — higher, 0.892
- AACACUGCCAAUGCCGGUCCCAAGCCCGGUUAAAAGUGGGGGGGGCGG — lower, 0.165
- AACACUGCCAAUGCCGGUCCCAAGCCCGGUUAAAAGUGGCGGGGGCGG — lower, 0.2
- AACACUGCCAAUGCCGGUCCCAAGCCCGGUUAAAAGUGGUGGGGGCGG — lower, 0.152
- AACACUGCCAAUGCCGGUCCCAAGCCCGGACAAAAGUGGAGGGGUCGG — higher, 0.871
- AACACUGCCAAUGCCGGUCCCAAGCCCGGACAAAAGUGGAGGGGCCGG — higher, 0.593
- AACACUGCCAAUGCCGGUCCCAAGCCCGGAAAAAAGUGAAGGGGGCGG — higher, 0.343
- AACACUGCCAAUGCCGGUCCCAAGCCCGGAAAAAAGUGCAGGGGGCGG — lower, 0.151
- AACACUGCCAAUGCCGGUCCCAAGCCCGGAGUAAAGUGGAGGGGGCGG — higher, 0.765
- AACACUGCCAAUGCCGGUCCCAAGCCCGGACAACAGUGGAGGGGGCGG — lower, 0.196
- AACACUGCCAAUGCCGGUCCCAAGCCCGGACAAUAGUGGAGGGGGCGG — higher, 0.739
- AACACUGCCAAUGCCGGUCCCAAGCCCGGAAAAAAGUGGAGGGGGCGC — higher, 1.19

— the RNAGym collection of RNA variant scans (doi:10.7554/elife.80360)
